{
  "source": "patent US20090169552A1",
  "about": "(FRED HUTCHINSON CANCER RESEARCH CENTER, published 2009)",
  "binders": {"B1": {"name": "MICA tetramer (recombinant MICA*001, residues 1-276, produced in transfected 293T cells, biotinylated and conjugated with PE-streptavidin) (ligand)", "chain": "EPHSLRYNLTVLSWDGSVQSGFLTEVHLDGQPFLRCDRQKCRAKPQGQWAEDVLGNKTWDRETRDLTGNGKDLRMTLAHIKDQKEGLHSLQEIRVCEIHEDNSTRSSQHFYYDGELFLSQNLETKEWTMPQSSRAQTLAMNVRNFLKEDAMKTKTHYHAMHADCLQELRRYLKSGVVLRRTVPPMVNVTRSEASEGNITVTCRASGFYPWNITLSWRQDGVSLSHDTQQWGDVLPDGNGTYQTWVATRICQGEEQRFTCYMEHSGNHSTHPVPSGK", "modifications": "glycosylated (secreted by 293T cells); BirA enzymatic biotinylation, conjugated with phycoerythrin (PE)-streptavidin", "notes": "Residues 1-276 probably count on the mature protein; also called MICA tetramers; PE-MICA tetramer"}},
  "key": {"[1]": {"biological_target": "T1, ERp5 (endoplasmic reticulum protein 5) on the cell surface (Homo sapiens (Human), UniProt Q15084 20-440)", "T1 construct": "Also stands for the native 50 kD ERp5 solubilised from U266 outer cell membranes in the MICA bead purification; also called surface ERp5; disulfide isomerase-related protein P5", "T1 sequence": "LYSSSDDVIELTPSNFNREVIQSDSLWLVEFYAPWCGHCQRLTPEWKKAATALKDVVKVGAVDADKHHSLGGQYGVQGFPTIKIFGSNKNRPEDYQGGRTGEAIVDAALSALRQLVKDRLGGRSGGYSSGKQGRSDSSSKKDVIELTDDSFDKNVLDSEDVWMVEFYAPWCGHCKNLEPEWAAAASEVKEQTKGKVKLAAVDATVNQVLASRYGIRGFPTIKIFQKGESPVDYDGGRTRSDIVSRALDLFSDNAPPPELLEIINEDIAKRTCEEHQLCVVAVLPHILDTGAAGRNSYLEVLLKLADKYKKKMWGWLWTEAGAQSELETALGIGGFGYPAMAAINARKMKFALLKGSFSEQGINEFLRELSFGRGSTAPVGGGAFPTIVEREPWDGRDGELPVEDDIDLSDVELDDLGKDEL", "assay": "flow cytometry of freshly isolated tumor cells"}, "[2]": {"biological_target": "T2, Siderocalin, expressed in bacteria, P80188", "T2 chain": "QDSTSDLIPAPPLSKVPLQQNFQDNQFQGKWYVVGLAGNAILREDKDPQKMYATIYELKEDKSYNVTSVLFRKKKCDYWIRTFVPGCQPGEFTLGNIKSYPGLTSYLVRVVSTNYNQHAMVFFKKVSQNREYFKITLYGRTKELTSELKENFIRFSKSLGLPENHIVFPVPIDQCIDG"}, "[3]": {"biological_target": "B1", "assay": "flow cytometry, tetramer staining of NKL cells", "description": "Early studies of NKG2D interactions with its ligands utilized randomly oligomerized recombinant MICA (rMICA) or ULBP family ligands produced as immunoglobulin fusion proteins, all of which bound exclusively to NKG2D expressing lymphocytes (Bauer et al., 1999; Cosman et al., 2001). Testing MICA and ULBP2 tetramers, the inventors confirmed that these high avidity reagents stained the NKL NK cell line and that binding was entirely accounted for by NKG2D (FIG. 1A). However, in the course of screening ˜40 cell lines by flow cytometry, the inventors observed that MICA, but not ULBP2, tetramers stained cell types lacking NKG2D. The highest fluorescence intensities were recorded with U266 myeloma cells and all of 10 epithelial tumor lines tested and correlated with relatively large amounts of cell surface MICA. Only monocytic U937 cells were identified as negative for tetramer binding (FIG. 1A). The MICA tetramers were prepared using glycosylated protein secreted by transfected 293T cells. However, tetramer binding was not reduced after cleavage of cell surface polypeptide-linked carbohydrates but was inhibited in the presence of unglycosylated rMICA (FIG. 1A)."}, "[4]": {"biological_target": "T3, C39S mutant of ERp5 fragment 1-118 (Homo sapiens (Human), UniProt Q15084 20-137, C39S)", "T3 construct": "Position 39 counts on the mature protein; not shown: N-terminal hexahistidine tract", "T3 sequence": "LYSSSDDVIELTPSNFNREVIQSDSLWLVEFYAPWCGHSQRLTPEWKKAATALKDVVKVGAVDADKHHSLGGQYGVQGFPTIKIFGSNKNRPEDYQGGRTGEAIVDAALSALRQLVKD", "assay": "purified proteins mixed, non-reducing SDS-PAGE", "description": "ERp5 activity assays. Ectodomain-only MICA, Siderocalin, and CD94-NKG2A were expressed in bacteria and purified as described (Li et al., 2001). […] All ERp5 sequences were fused to N-terminal hexahistidine tracts and included a C-terminal stop codon to prevent expression of the adjacent hexahistidine in pET22(b). Recombinant proteins were purified by metal affinity (BD Talon, Clontech) and size exclusion chromatography (Superdex 200, Pharmacia)."}},
  "data": [
    {"binder": "B1", "values": [
      {"measurement": "binding result", "setting": "[1]", "value": "binds"}
    ]},
    {"binder": "recombinant ERp5 (residues 1-421 of the mature protein), bacterially produced, N-terminal hexahistidine (protein) LYSSSDDVIELTPSNFNREVIQSDSLWLVEFYAPWCGHCQRLTPEWKKAATALKDVVKVGAVDADKHHSLGGQYGVQGFPTIKIFGSNKNRPEDYQGGRTGEAIVDAALSALRQLVKDRLGGRSGGYSSGKQGRSDSSSKKDVIELTDDSFDKNVLDSEDVWMVEFYAPWCGHCKNLEPEWAAAASEVKEQTKGKVKLAAVDATVNQVLASRYGIRGFPTIKIFQKGESPVDYDGGRTRSDIVSRALDLFSDNAPPPELLEIINEDIAKRTCEEHQLCVVAVLPHILDTGAAGRNSYLEVLLKLADKYKKKMWGWLWTEAGAQSELETALGIGGFGYPAMAAINARKMKFALLKGSFSEQGINEFLRELSFGRGSTAPVGGGAFPTIVEREPWDGRDGELPVEDDIDLSDVELDDLGKDEL", "values": [
      {"measurement": "disulfide bond reduction, non-reducing gel electrophoresis", "setting": "[2]", "value": "ERp5 did not affect unrelated proteins with relatively accessible intrachain (Siderocalin) or intrachain and interchain (CD94-NKG2A) disulfide bonds"}
    ]},
    {"binder": "NKG2D on NKL NK cells (receptor, human, UniProt P26718 1-216, looked up, whole, on cells; On cells paired with DAP10 according to the description; also called KLRK1) MGWIRGRRSRHSWEMSEFHNYNLDLKKSDFSTRWQKQRCPVVKSKCRENASPFFFCCFIAVAMGIRFIIMVTIWSAVFLNSLFNQEVQIPLTESYCGPCPKNWICYKNNCYQFFDESKNWYESQASCMSQNASLLKVYSKEDQDLLKLVKSYHWMGLVHIPTNGSWQWEDGSILSPNLLTIIEMQKGDCALYASSFKGYIENCSTPNTYICMQRTV", "values": [
      {"measurement": "binding result", "setting": "[3]", "value": "binds"}
    ]},
    {"binder": "isolated MICA α3 domain (residues 187-274), expressed in bacteria (ligand, Numbering probably of the mature protein (Li et al., 1999); also called α3 membrane-proximal domain) NVTRSEASEGNITVTCRASGFYPWNITLSWRQDGVSLSHDTQQWGDVLPDGNGTYQTWVATRICQGEEQRFTCYMEHSGNHSTHPVPS", "values": [
      {"measurement": "binding result", "setting": "[4]", "value": "binds"}
    ]}
  ]
}
